According to the RNAGym collection of RNA variant scans (doi:10.1021/acssynbio.7b00057):

B1: Pistol ribozyme (parent)
chain: GGGUCGUUGUUCCAUAAUCGCGUGGAUAUGGCACGCAAGUUUCUACCGGGCACCGUAAAUGUCCGACUGGAGCCGUUCGGGCGGCUAUAAACAGACCUCAGGCCCGAAGCGUGGCGGCACCUGCCGCCGGUGGUAAAAAAGAUCGGAAGAGCACACGUCU

Variants of: B1
Test: aptazyme ON/OFF ratio, guanine; higher = stronger switching; co-transcriptional cleavage with and without guanine

Point of comparison: GGGUCGCAGGAUAAUAAUCGCGUGGAUAUGGCACGCAAGUUUCUACCGGGCACCGUAAAUGUCCGACUGGAGCCGUUCGGGCGGCUAUAAACAGACCUCAGGCCCGAAGCGUGGCGGCACCUGCCGCCGGUGGUAAAAAAGAUCGGAAGAGCACACGUCU, “aptazyme ON/OFF ratio” value 1.3. Against it:
- GGGUCGGAACUGAAUAAUCGCGUGGAUAUGGCACGCAAGUUUCUACCGGGCACCGUAAAUGUCCGACUGGAGCCGUUCGGGCGGCUAUAAACAGACCUCAGGCCCGAAGCGUGGCGGCACCUGCCGCCGGUGGUAAAAAAGAUCGGAAGAGCACACGUCU — lower, 1.11
- GGGUCGGCUAGCCAUAAUCGCGUGGAUAUGGCACGCAAGUUUCUACCGGGCACCGUAAAUGUCCGACUGGAGCCGUUCGGGCGGCUAUAAACAGACCUCAGGCCCGAAGCGUGGCGGCACCUGCCGCCGGUGGUAAAAAAGAUCGGAAGAGCACACGUCU — higher, 2.29
- GGGUCGCCAUUUUAUAAUCGCGUGGAUAUGGCACGCAAGUUUCUACCGGGCACCGUAAAUGUCCGACUGGAGCCGUUCGGGCGGCUAUAAACAGACCUCAGGCCCGAAGCGUGGCGGCACCUGCCGCCGGUGGUAAAAAAGAUCGGAAGAGCACACGUCU — lower, 1.26
- GGGUCGCCUAGUGAUAAUCGCGUGGAUAUGGCACGCAAGUUUCUACCGGGCACCGUAAAUGUCCGACUGGAGCCGUUCGGGCGGCUAUAAACAGACCUCAGGCCCGAAGCGUGGCGGCACCUGCCGCCGGUGGUAAAAAAGAUCGGAAGAGCACACGUCU — lower, 1.13
- GGGUCGUGUCGCUAUAAUCGCGUGGAUAUGGCACGCAAGUUUCUACCGGGCACCGUAAAUGUCCGACUGGAGCCGUUCGGGCGGCUAUAAACAGACCUCAGGCCCGAAGCGUGGCGGCACCUGCCGCCGGUGGUAAAAAAGAUCGGAAGAGCACACGUCU — lower, 1.03
- GGGUCGUCACACGAUAAUCGCGUGGAUAUGGCACGCAAGUUUCUACCGGGCACCGUAAAUGUCCGACUGGAGCCGUUCGGGCGGCUAUAAACAGACCUCAGGCCCGAAGCGUGGCGGCACCUGCCGCCGGUGGUAAAAAAGAUCGGAAGAGCACACGUCU — lower, 1.15
- GGGUCGACAAAGCAUAAUCGCGUGGAUAUGGCACGCAAGUUUCUACCGGGCACCGUAAAUGUCCGACUGGAGCCGUUCGGGCGGCUAUAAACAGACCUCAGGCCCGAAGCGUGGCGGCACCUGCCGCCGGUGGUAAAAAAGAUCGGAAGAGCACACGUCU — lower, 1.24
- GGGUCGGGCCUUUAUAAUCGCGUGGAUAUGGCACGCAAGUUUCUACCGGGCACCGUAAAUGUCCGACUGGAGCCGUUCGGGCGGCUAUAAACAGACCUCAGGCCCGAAGCGUGGCGGCACCUGCCGCCGGUGGUAAAAAAGAUCGGAAGAGCACACGUCU — lower, 1.08
- GGGUCGCAGACCUAUAAUCGCGUGGAUAUGGCACGCAAGUUUCUACCGGGCACCGUAAAUGUCCGACUGGAGCCGUUCGGGCGGCUAUAAACAGACCUCAGGCCCGAAGCGUGGCGGCACCUGCCGCCGGUGGUAAAAAAGAUCGGAAGAGCACACGUCU — lower, 1.01
- GGGUCGAUUCUCCAUAAUCGCGUGGAUAUGGCACGCAAGUUUCUACCGGGCACCGUAAAUGUCCGACUGGAGCCGUUCGGGCGGCUAUAAACAGACCUCAGGCCCGAAGCGUGGCGGCACCUGCCGCCGGUGGUAAAAAAGAUCGGAAGAGCACACGUCU — higher, 2.35
- GGGUCGGAUUAGUAUAAUCGCGUGGAUAUGGCACGCAAGUUUCUACCGGGCACCGUAAAUGUCCGACUGGAGCCGUUCGGGCGGCUAUAAACAGACCUCAGGCCCGAAGCGUGGCGGCACCUGCCGCCGGUGGUAAAAAAGAUCGGAAGAGCACACGUCU — lower, 1.04
- GGGUCGCACAAAUAUAAUCGCGUGGAUAUGGCACGCAAGUUUCUACCGGGCACCGUAAAUGUCCGACUGGAGCCGUUCGGGCGGCUAUAAACAGACCUCAGGCCCGAAGCGUGGCGGCACCUGCCGCCGGUGGUAAAAAAGAUCGGAAGAGCACACGUCU — lower, 1.2
- GGGUCGAUUCCGUAUAAUCGCGUGGAUAUGGCACGCAAGUUUCUACCGGGCACCGUAAAUGUCCGACUGGAGCCGUUCGGGCGGCUAUAAACAGACCUCAGGCCCGAAGCGUGGCGGCACCUGCCGCCGGUGGUAAAAAAGAUCGGAAGAGCACACGUCU — lower, 1.01
- GGGUCGGAGCCCAAUAAUCGCGUGGAUAUGGCACGCAAGUUUCUACCGGGCACCGUAAAUGUCCGACUGGAGCCGUUCGGGCGGCUAUAAACAGACCUCAGGCCCGAAGCGUGGCGGCACCUGCCGCCGGUGGUAAAAAAGAUCGGAAGAGCACACGUCU — lower, 1.05
- GGGUCGAGUUAGGAUAAUCGCGUGGAUAUGGCACGCAAGUUUCUACCGGGCACCGUAAAUGUCCGACUGGAGCCGUUCGGGCGGCUAUAAACAGACCUCAGGCCCGAAGCGUGGCGGCACCUGCCGCCGGUGGUAAAAAAGAUCGGAAGAGCACACGUCU — lower, 1.26
- GGGUCGAAGUGAAAUAAUCGCGUGGAUAUGGCACGCAAGUUUCUACCGGGCACCGUAAAUGUCCGACUGGAGCCGUUCGGGCGGCUAUAAACAGACCUCAGGCCCGAAGCGUGGCGGCACCUGCCGCCGGUGGUAAAAAAGAUCGGAAGAGCACACGUCU — lower, 1.15
- GGGUCGUGGGUAAAUAAUCGCGUGGAUAUGGCACGCAAGUUUCUACCGGGCACCGUAAAUGUCCGACUGGAGCCGUUCGGGCGGCUAUAAACAGACCUCAGGCCCGAAGCGUGGCGGCACCUGCCGCCGGUGGUAAAAAAGAUCGGAAGAGCACACGUCU — lower, 1.26
- GGGUCGAUCACAGAUAAUCGCGUGGAUAUGGCACGCAAGUUUCUACCGGGCACCGUAAAUGUCCGACUGGAGCCGUUCGGGCGGCUAUAAACAGACCUCAGGCCCGAAGCGUGGCGGCACCUGCCGCCGGUGGUAAAAAAGAUCGGAAGAGCACACGUCU — lower, 1.1
- GGGUCGAGCACCAAUAAUCGCGUGGAUAUGGCACGCAAGUUUCUACCGGGCACCGUAAAUGUCCGACUGGAGCCGUUCGGGCGGCUAUAAACAGACCUCAGGCCCGAAGCGUGGCGGCACCUGCCGCCGGUGGUAAAAAAGAUCGGAAGAGCACACGUCU — lower, 1.04
- GGGUCGGCUGGGGAUAAUCGCGUGGAUAUGGCACGCAAGUUUCUACCGGGCACCGUAAAUGUCCGACUGGAGCCGUUCGGGCGGCUAUAAACAGACCUCAGGCCCGAAGCGUGGCGGCACCUGCCGCCGGUGGUAAAAAAGAUCGGAAGAGCACACGUCU — lower, 1.23
- GGGUCGCCGUGCGAUAAUCGCGUGGAUAUGGCACGCAAGUUUCUACCGGGCACCGUAAAUGUCCGACUGGAGCCGUUCGGGCGGCUAUAAACAGACCUCAGGCCCGAAGCGUGGCGGCACCUGCCGCCGGUGGUAAAAAAGAUCGGAAGAGCACACGUCU — lower, 1.28
- GGGUCGAUAUCAAAUAAUCGCGUGGAUAUGGCACGCAAGUUUCUACCGGGCACCGUAAAUGUCCGACUGGAGCCGUUCGGGCGGCUAUAAACAGACCUCAGGCCCGAAGCGUGGCGGCACCUGCCGCCGGUGGUAAAAAAGAUCGGAAGAGCACACGUCU — lower, 1.17
- GGGUCGCGUAUCAAUAAUCGCGUGGAUAUGGCACGCAAGUUUCUACCGGGCACCGUAAAUGUCCGACUGGAGCCGUUCGGGCGGCUAUAAACAGACCUCAGGCCCGAAGCGUGGCGGCACCUGCCGCCGGUGGUAAAAAAGAUCGGAAGAGCACACGUCU — lower, 1.14
- GGGUCGUAAGCGAAUAAUCGCGUGGAUAUGGCACGCAAGUUUCUACCGGGCACCGUAAAUGUCCGACUGGAGCCGUUCGGGCGGCUAUAAACAGACCUCAGGCCCGAAGCGUGGCGGCACCUGCCGCCGGUGGUAAAAAAGAUCGGAAGAGCACACGUCU — lower, 1.16
- GGGUCGCCUUCGAAUAAUCGCGUGGAUAUGGCACGCAAGUUUCUACCGGGCACCGUAAAUGUCCGACUGGAGCCGUUCGGGCGGCUAUAAACAGACCUCAGGCCCGAAGCGUGGCGGCACCUGCCGCCGGUGGUAAAAAAGAUCGGAAGAGCACACGUCU — lower, 1.12
- GGGUCGUUUCGAGAUAAUCGCGUGGAUAUGGCACGCAAGUUUCUACCGGGCACCGUAAAUGUCCGACUGGAGCCGUUCGGGCGGCUAUAAACAGACCUCAGGCCCGAAGCGUGGCGGCACCUGCCGCCGGUGGUAAAAAAGAUCGGAAGAGCACACGUCU — lower, 1.22
- GGGUCGCGUUUGUAUAAUCGCGUGGAUAUGGCACGCAAGUUUCUACCGGGCACCGUAAAUGUCCGACUGGAGCCGUUCGGGCGGCUAUAAACAGACCUCAGGCCCGAAGCGUGGCGGCACCUGCCGCCGGUGGUAAAAAAGAUCGGAAGAGCACACGUCU — lower, 1.28
- GGGUCGAAGGAUCAUAAUCGCGUGGAUAUGGCACGCAAGUUUCUACCGGGCACCGUAAAUGUCCGACUGGAGCCGUUCGGGCGGCUAUAAACAGACCUCAGGCCCGAAGCGUGGCGGCACCUGCCGCCGGUGGUAAAAAAGAUCGGAAGAGCACACGUCU — lower, 1.24
- GGGUCGAAUUGCGAUAAUCGCGUGGAUAUGGCACGCAAGUUUCUACCGGGCACCGUAAAUGUCCGACUGGAGCCGUUCGGGCGGCUAUAAACAGACCUCAGGCCCGAAGCGUGGCGGCACCUGCCGCCGGUGGUAAAAAAGAUCGGAAGAGCACACGUCU — lower, 1.08
- GGGUCGGCAGGGAAUAAUCGCGUGGAUAUGGCACGCAAGUUUCUACCGGGCACCGUAAAUGUCCGACUGGAGCCGUUCGGGCGGCUAUAAACAGACCUCAGGCCCGAAGCGUGGCGGCACCUGCCGCCGGUGGUAAAAAAGAUCGGAAGAGCACACGUCU — lower, 1.13
- GGGUCGCCCGUAUAUAAUCGCGUGGAUAUGGCACGCAAGUUUCUACCGGGCACCGUAAAUGUCCGACUGGAGCCGUUCGGGCGGCUAUAAACAGACCUCAGGCCCGAAGCGUGGCGGCACCUGCCGCCGGUGGUAAAAAAGAUCGGAAGAGCACACGUCU — lower, 1.1
- GGGUCGGACAGCUAUAAUCGCGUGGAUAUGGCACGCAAGUUUCUACCGGGCACCGUAAAUGUCCGACUGGAGCCGUUCGGGCGGCUAUAAACAGACCUCAGGCCCGAAGCGUGGCGGCACCUGCCGCCGGUGGUAAAAAAGAUCGGAAGAGCACACGUCU — lower, 1.02
- GGGUCGAGCAGCGAUAAUCGCGUGGAUAUGGCACGCAAGUUUCUACCGGGCACCGUAAAUGUCCGACUGGAGCCGUUCGGGCGGCUAUAAACAGACCUCAGGCCCGAAGCGUGGCGGCACCUGCCGCCGGUGGUAAAAAAGAUCGGAAGAGCACACGUCU — lower, 1.26
- GGGUCGUGAACAUAUAAUCGCGUGGAUAUGGCACGCAAGUUUCUACCGGGCACCGUAAAUGUCCGACUGGAGCCGUUCGGGCGGCUAUAAACAGACCUCAGGCCCGAAGCGUGGCGGCACCUGCCGCCGGUGGUAAAAAAGAUCGGAAGAGCACACGUCU — higher, 1.32
- GGGUCGAUGUCGUAUAAUCGCGUGGAUAUGGCACGCAAGUUUCUACCGGGCACCGUAAAUGUCCGACUGGAGCCGUUCGGGCGGCUAUAAACAGACCUCAGGCCCGAAGCGUGGCGGCACCUGCCGCCGGUGGUAAAAAAGAUCGGAAGAGCACACGUCU — lower, 1.23
